Measured values reported in patent US20110111406A1 (published 2011).
Where a chain is given by its changes, count along the chain named. Where two headings read alike, the source gives them in different places.

T1: recombinant soluble human IL-6 receptor (SR344) (human, UniProt P08887 20-344)
T1 construct: In the 'membrane-type IL-6 receptor' Biacore assays the same SR344 was biotinylated and immobilized via streptavidin; also called soluble IL-6 receptor; membrane-type IL-6 receptor (as biotinylated SR344 immobilized on the sensor chip)
T1 sequence (looked up): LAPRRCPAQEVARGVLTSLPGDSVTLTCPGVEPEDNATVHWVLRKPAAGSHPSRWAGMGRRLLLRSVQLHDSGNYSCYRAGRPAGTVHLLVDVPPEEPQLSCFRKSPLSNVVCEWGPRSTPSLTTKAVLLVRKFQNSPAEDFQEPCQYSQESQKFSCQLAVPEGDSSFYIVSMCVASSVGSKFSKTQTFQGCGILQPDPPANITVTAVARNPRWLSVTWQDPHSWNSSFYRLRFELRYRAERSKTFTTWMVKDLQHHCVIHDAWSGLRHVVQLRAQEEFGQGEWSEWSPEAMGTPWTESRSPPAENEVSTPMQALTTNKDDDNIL

B1: Fv4-IgG1 (antibody)
heavy: not shown
light: DIQMTQSPSSLSASVGDSVTITCQASTDISSHLNWYQQKPGKAPELLIYYGSHLLSGVPSRFSGSGSGTDFTFTISSLEAEDAATYYCGQGNRLPYTFGQGTKVEIERTVAAPSVFIFPPSDEQLKSGTASVVCLLNNFYPREAKVQWKVDNALQSGNSQESVTEQDSKDSTYSLSSTLTLSKADYEKHKVYACEVTHQGLSSPVTKSFNRGEC
notes: also called VH3-IgG1/VL3-CK
B2: Anti-IL6 wild type (antibody, human IgG1, kappa, V domains shown)
VH: EVQLVESGGKLLKPGGSLKLSCAASGFTFSSFAMSWFRQSPEKRLEWVAEISSGGSYTYYPDTVTGRFTISRDNAKNTLYLEMSSLRSEDTAMYYCARGLWGYYALDYWGQGTSVTVSS
VL: QIVLIQSPAIMSASPGEKVTMTCSASSSVSYMYWYQQKPGSSPRLLIYDTSNLASGVPVRFSGSGSGTSYSLTISRMEAEDAATYYCQQWSGYPYTFGGGTKLEIKR
notes: also called WT (anti-IL-6 antibody of WO 2004/039826)
B3: Anti-IL6 clone 1 (antibody, human IgG1, kappa, V domains shown)
VH: B2 VH with F32H, Y60H, D62H, Y103H
VL: B2 VL with L53H, Q89H, Y93H
notes: H chain (c1) and L chain (c1)
B4: Anti-IL-6 clone 2 (antibody, human IgG1, kappa, V domains shown)
VH: B2 VH with F32H, Y60H, D62H, Y103H
VL: B2 VL with N52H, L53H, Q89H, Y93H
notes: H chain (c1) and L chain (c2)
B5: humanized PM1 antibody (wild type, WT) (antibody, human IgG1, kappa, V domains shown)
VH: QVQLQESGPGLVRPSQTLSLTCTVSGYSITSDHAWSWVRQPPGRGLEWIGYISYSGITTYNPSLKSRVTMLRDTSKNQFSLRLSSVTAADTAVYYCARSLARTTAMDYWGQGSLVTVSS
VL: DIQMTQSPSSLSASVGDRVTITCRASQDISSYLNWYQQKPGKAPKLLIYYTSRLHSGVPSRFSGSGSGTDFTFTISSLQPEDIATYYCQQGNTLPYTFGQGTKVEIKR
notes: Tested as IgG1; also called WT-IgG1; H(WT)/L(WT)
B6: H3pI/L73 (antibody, IgG1, V domains shown)
VH: QVQLQESGPGLVKPSETLSLTCAVSGHSISHDHAHSWVRQPPGEGLEWIGYISYSGITNYNPSLKGRVTISRDTSKNQFSLKLSSVTAADTAAYYCARSLARTTAMDYWGEGTLVTVSS
VL: DIQMTQSPSSLSASVGDSVTITCQASQHISSHLNWYQQKPGKAPELLIYYGSHLHSGVPSRFSGSGSGTDFTFTISSLEAEDAATYYCGQGNRLPYTFGQGTKVEIE
notes: antibody expressed as IgG1; also called H3pI/L73-IgG1; H3pl/L73
B7: H54/L28-IgG1 (antibody, V domains shown)
VH: B6 VH with H27Y, H31D, H33Q, H35W
VL: B6 VL with H28D, H32Y, H53E, G89Q, R93S
notes: tested as IgG1
B8: Fv2-IgG1 (antibody, V domains shown)
VH: B6 VH with H27Y, H35W, Y51H, S63H, K65Q, G66D, S99F, T103I, M106H, Y108H
VL: B6 VL with H28D
notes: also called VH1-IgG1/L82

Assays:
[1] = target: T1, recombinant soluble human IL-6 receptor …; experiment: Biacore T100, biotinylated SR344 immobilized via streptavidin (membrane-type IL-6 receptor model), antibody as analyte; ratio of kd at pH 5.8 to pH 7.4
Protocol: (§1) Binding to the membrane-type IL-6 receptor was evaluated by evaluating binding to the IL-6 receptor immobilized on a sensor chip. SR344 was biotinylated in accordance with a method known among persons with ordinary skill in the art, and the biotinylated SR344 was immobilized on the sensor chip via streptavidin using the affinity between streptavidin and biotin. All the measurements were carried out at 37° C. The mobile phase buffer was 10 mM MES (pH 5.8), 150 mM NaCl and 0.05% Tween 20.
(§2) The pH-dependently-binding clones were injected under the condition of pH 7.4 to allow them to bind to SR344, and then, the pH-dependent dissociation of each clone at the pH of the mobile phase, pH 5.8, was observed. The results are shown in FIG. 21 (results for Fv1-M71, Fv1-M73, Fv3-M71, and Fv3-M73 are shown in FIG. 21, while results for other clones are shown in FIGS. 17 and 19). Analyses were carried out in the same manner as in Example 10 and the pH dependencies of the dissociation rate constants of all of the eleven types of clones are shown in Table 12.

[2] = target: T1, recombinant soluble human IL-6 receptor …; experiment: Biacore T100, antibody captured on protein A/G, SR344 as analyte, 37C; ratio of KD at pH 5.8 to pH 7.4
Protocol: (§3) Kinetic analysis of antigen-antibody reactions at pH 7.4 and pH 5.8 was carried out using Biacore T100 (GE Healthcare) for the four types of antibodies prepared: WT-IgG1, H54/L28-IgG1, H170/L82-IgG1, and Fv4-IgG1(buffer: 10 mM MES (pH 7.4 or pH 5.8), 150 mM NaCl, 0.05% Surfactant-P20). The antibodies were bound to a sensor chip on which recomb-protein A/G (Pierce) was immobilized by amine coupling, and SR344 adjusted to an appropriate concentration was injected therein as an analyte. The association with and dissociation from SR344 of each type of antibody were observed on a real-time basis. All the measurements were carried out at 37° C. Association rate constants kₐ (1/Ms) and dissociation rate constants kd (1/s) were calculated using Biacore T100 Evaluation Software (GE Healthcare), and dissociation constants KD (M) were calculated based on those values (Table 17).

[3] = target: T1, recombinant soluble human IL-6 receptor …; experiment: Biacore T100, antibody captured on protein A/G, SR344 as analyte, 37C; ratio of kd at pH 5.8 to pH 7.4
Protocol: as §3

[4] = target: T1, recombinant soluble human IL-6 receptor …; experiment: Biacore T100, biotinylated SR344 immobilized via streptavidin (membrane-type IL-6 receptor model), antibody as analyte; ratio of kd at pH 5.8 to pH 7.4; remark: listed apart in the source
Protocol: as §1, §2

[5] = target: T1, recombinant soluble human IL-6 receptor …; experiment: as above; remark: listed apart in the source
Protocol: as §1, §2

human IL-6 (Toray) [6] = target: T2, human IL-6 (Toray) (human, UniProt P05231 30-212); experiment: Biacore T100, antibody captured on protein A/G, human IL-6 as analyte, 37C; ratio of KD at pH 5.5 to pH 7.4
T2 construct: also called human interleukin-6
Protocol: (§4) Kinetic analysis of antigen-antibody reactions at pH 5.5 and pH 7.4 was carried out using Biacore T100 (GE Healthcare) for the three types of antibodies prepared as mentioned above: Anti-IL6 wild type, Anti-IL6 clone 1, and Anti-IL-6 clone 2 (buffer: DPBS(−) (pH 7.4 or pH 5.5), 150 mM NaCl). The antibodies were bound to a sensor chip on which recomb-protein A/G (Pierce) was immobilized by amine coupling, and then human IL-6 (Toray) adjusted to an appropriate concentration was injected on the chip as an analyte. All the measurements were carried out at 37° C. Association rate constants kₐ (1/Ms) and dissociation rate constants kd (1/s) were calculated using Biacore T100 Evaluation Software (GE Healthcare), and dissociation constants KD (M) were calculated based on those values (Table 14). Furthermore, the ratio of affinity at pH 5.5 and pH 7.4 was calculated for each clone to evaluate the pH-dependent binding.

human IL-6 (Toray) [7] = target: T2, human IL-6 (Toray); experiment: Biacore T100, human IL-6 as analyte; KD(pH 5.5)/KD(pH 7.4) compared with Anti-IL6 wild type
Protocol: as §4

[8] = target: T1, recombinant soluble human IL-6 receptor …; experiment: Biacore T100, antibody captured on protein A/G, SR344 as analyte, 37C; ratio of KD at pH 5.8 to pH 7.4; remark: listed apart in the source
Protocol: (§5) Kinetic analyses of antigen-antibody reactions at pH 5.8 and pH 7.4 were carried out using Biacore T100 (GE Healthcare) on the four antibodies: humanized PM1 antibody (WT) and H3pI/L73, CLH5/L73, and H170/L82 produced in Examples 2 and 4 (buffer: 10 mM MES (pH 7.4 or pH 5.8), 150 mM NaCl, and 0.05% Tween 20). Various antibodies were bound onto a sensor chip immobilized with recomb-protein A/G (Pierce) by amine coupling. SR344 adjusted to concentrations of 9.8 to 400 nM was injected to the chip as an analyte. […] All the measurements were carried out at 37° C. Association rate constants kₐ (1/Ms) and dissociation rate constants kd (1/s) were calculated using Biacore T100 Evaluation Software (GE Healthcare), and dissociation constants KD (M) were calculated on the basis of those values (Table 5). Moreover, the ratio of the affinities at pH 5.8 and pH 7.4 were calculated for each clone to evaluate pH-dependent binding. All the measurements were carried out at 37° C.

[9] = target: T1, recombinant soluble human IL-6 receptor …; experiment: Biacore T100, SR344 as analyte; KD(pH5.8)/KD(pH7.4) compared with WT
Protocol: as §5

| Binder | KD(pH5.8)/KD(pH7.4) [2] | kd(pH 5.8)/kd(pH 7.4) [3] | kd(pH 5.8)/kd(pH 7.4) [4] | kd(pH 5.8)/kd(pH 7.4) [5] | KD(pH 5.5)/KD(pH 7.4) (human IL-6 (Toray) [6]) | also measured |
| --- | --- | --- | --- | --- | --- | --- |
| B1 | 27.3 | 38.8 | 5.56 | 5.56 |  | kd(pH 5.8)/kd(pH 7.4) [1]: 5.56 |
| B2 |  |  |  |  | 0.8 |  |
| B3 |  |  |  |  | 10.3 | pH-dependent binding ability relative to WT (human IL-6 (Toray) [7]): 10 times |
| B4 |  |  |  |  | 13.5 | pH-dependent binding ability relative to WT (human IL-6 (Toray) [7]): 10 times |
| B5 | 1.6 | 2.9 | 1 | 1 |  | KD(pH5.8)/KD(pH7.4) [8]: 2.4 |
| B6 |  |  | 2.59 | 2.59 |  | KD(pH5.8)/KD(pH7.4) [8]: 41.3; pH-dependent binding (affinity ratio) relative to WT [9]: 15 times |
| B7 | 0.7 | 2 |  |  |  |  |
| B8 |  |  | 7.18 | 7.18 |  |  |
